Seven molecules from patent publication US20170253656A1 (SUTRO BIOPHARMA, published 2017) can be followed below.

The Kd is the constant that tells how readily two partners part at equilibrium. A high value points to lower affinity. Broadly, the koff is the first-order rate constant of dissociation. One may read the kon as the rate constant with which the complex forms.

B1: HC 1251_A06 (wt)/LC 1337_A07 (wt) (antibody, human IgG1, kappa, V domains shown)
VH: QVQLVESGGGVVQPGRSLRLSCAASGFDFSSYGMHWVRQAPDKGLEWVAVIWDDGSDRYYADSVKGRFTISRDNSKNTLYLQMNSLRAEDTAVYYCARGGTRVLGAIHGTDVWGQGTTVTVSS
VL: DIQMTQSPSSLSASVGDRVTITCRASQGISSWVAWYQQKPEKAPKSLIYGASRLQSGVPSRFSGSGSGTDFTLTISSLQPEDFATYYCQQYHTYPLTFGGGTKVEIKR
notes: IgG format
B2: HC 1251_A06 (wt)/LC 1275_C10 (g) (antibody, human IgG1, kappa, V domains shown)
VH: QVQLVESGGGVVQPGRSLRLSCAASGFDFSSYGMHWVRQAPDKGLEWVAVIWDDGSDRYYADSVKGRFTISRDNSKNTLYLQMNSLRAEDTAVYYCARGGTRVLGAIHGTDVWGQGTTVTVSS
VL: DIQMTQSPSSVSASVGDRVTITCRASQGVSSWLAWYQQKPGKAPKLLIYSARYLQSGVPSRFSGSGSGTDFTLTISSLQPEDFATYYCQQYNLYPLTFGGGTKVEIKR
notes: IgG format
B3: HC 1251_A06 (wt)/LC 1337_A09 (g) (antibody, human IgG1, kappa, V domains shown)
VH: QVQLVESGGGVVQPGRSLRLSCAASGFDFSSYGMHWVRQAPDKGLEWVAVIWDDGSDRYYADSVKGRFTISRDNSKNTLYLQMNSLRAEDTAVYYCARGGTRVLGAIHGTDVWGQGTTVTVSS
VL: DIQMTQSPSSVSASVGDRVTITCRASQGIGSWLAWYQQKPGKAPKLLIYAADRLQSGVPSRFSGSGSGTDFTLTISSLQPEDFATYYCQQYHTYPLTFGGGTKVEIKR
notes: IgG format
B4: HC 1251_A06 (wt)/LC 1337_A10 (g) (antibody, human IgG1, kappa, V domains shown)
VH: QVQLVESGGGVVQPGRSLRLSCAASGFDFSSYGMHWVRQAPDKGLEWVAVIWDDGSDRYYADSVKGRFTISRDNSKNTLYLQMNSLRAEDTAVYYCARGGTRVLGAIHGTDVWGQGTTVTVSS
VL: DIQMTQSPSSVSASVGDRVTITCRASQGISSWVAWYQQKPGKAPKLLIYGSSRLQSGVPSRFSGSGSGTDFTLTISSLQPEDFATYYCQQYNTYPLTFGGGTKVEIKR
notes: IgG format
B5: HC 1251_A06 (wt)/LC 1275_C10 (wt) (antibody, human IgG1, kappa)
heavy: not shown
light: MDIQMTQSPSSLSASVGDRVTITCRASQGVSSWLAWYQQKPEKAPKSLIYSARYLQSGVPSRFSGSGSGTDFTLTISSLQPEDFATYYCQQYNLYPLTFGGGTKVEIKRTVAAPSVFIFPPSDEQLKSGTASVVCLLNNFYPREAKVQWKVDNALQSGNSQESVTEQDSKDSTYSLSSTLTLSKADYEKHKVYACEVTHQGLSSPVTKSFNRGEC
notes: IgG format
B6: HC 1251_A06 (wt)/LC 1337_A09 (wt) (antibody, human IgG1, kappa, V domains shown)
VH: QVQLVESGGGVVQPGRSLRLSCAASGFDFSSYGMHWVRQAPDKGLEWVAVIWDDGSDRYYADSVKGRFTISRDNSKNTLYLQMNSLRAEDTAVYYCARGGTRVLGAIHGTDVWGQGTTVTVSS
VL: DIQMTQSPSSLSASVGDRVTITCRASQGIGSWLAWYQQKPEKAPKSLIYAADRLQSGVPSRFSGSGSGTDFTLTISSLQPEDFATYYCQQYHTYPLTFGGGTKVEIKR
notes: IgG format
B7: HC 1251_A06 (wt)/LC 1337_A07 (g) (antibody, human IgG1, kappa, V domains shown)
VH: QVQLVESGGGVVQPGRSLRLSCAASGFDFSSYGMHWVRQAPDKGLEWVAVIWDDGSDRYYADSVKGRFTISRDNSKNTLYLQMNSLRAEDTAVYYCARGGTRVLGAIHGTDVWGQGTTVTVSS
VL: DIQMTQSPSSVSASVGDRVTITCRASQGISSWVAWYQQKPGKAPKLLIYGASRLQSGVPSRFSGSGSGTDFTLTISSLQPEDFATYYCQQYHTYPLTFGGGTKVEIKR
notes: IgG format

The assay has as its target T1, hu-CD74 antigen (R&D SYSTEMS catalog #3590-CD-050) (human, UniProt P04233-2 73-232, limits assumed).
T1 construct: Bought antigen; also called rhCD74; human CD74
T1 sequence (looked up): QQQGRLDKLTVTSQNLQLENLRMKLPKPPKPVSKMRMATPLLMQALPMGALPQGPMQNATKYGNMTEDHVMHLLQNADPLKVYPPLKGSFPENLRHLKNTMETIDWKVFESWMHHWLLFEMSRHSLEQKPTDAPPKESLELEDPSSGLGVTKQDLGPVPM
The assay can be described thus: SPR (Biacore T200), IgG captured on anti-human Fc, rhCD74 analyte. The protocol: Kinetic binding experiments were performed at 25° C. using 1×HBS-EP+buffer. Kinetic data was collected by injecting test and control antibodies at concentrations of 10, 5 and 2.5 μg/mL for 12 s at a flow rate of 10 μl/min on flow cells 2, 3 and 4 respectively, followed by a buffer wash for 30 s at the same flow rate. Kinetic characterization of antibody samples was carried out with 8 concentrations of a 1:2 dilution series of rhCD74 antigen (R&D Systems) and 2 injections of 0 nM antigen (buffer only). […] Between each ligand capture and analyte binding cycle, regeneration was carried out using 2 injections of 3M MgCl₂ for 30 seconds at 30 μL/min, followed by a 30 second buffer wash step.
Background: SPR reads the build-up and loss of mass on a sensor chip optically.
B1: the Kd amounted to 0.168 nM, the off-rate constant (koff) came to 0.0001 s⁻¹ and the kon amounted to 598000 M⁻¹ s⁻¹.

In turn, B2 displayed a Kd of 0.348 nM, a koff of 0.000166 s⁻¹ and a kon of 478000 M⁻¹ s⁻¹.

B3: the Kd came out at 0.18 nM, the koff is 0.00011 s⁻¹ and the kon amounted to 610000 M⁻¹ s⁻¹.

Turning to B4, the Kd is 0.411 nM, the koff was 0.000235 s⁻¹ and the kon came to 571000 M⁻¹ s⁻¹.

Turning to B5, the Kd is 0.245 nM, the koff turned out to be 0.00016 s⁻¹ and the kon amounted to 654000 M⁻¹ s⁻¹.

On to B6, for which binding was characterised by a dissociation constant (Kd) of 0.156 nM, the koff was 9.19e-05 s⁻¹ and the kon came out at 588000 M⁻¹ s⁻¹.

Molecule B7 showed a Kd of 0.205 nM, a koff of 0.000136 s⁻¹ and an on-rate (kon) of 660000 M⁻¹ s⁻¹.
